The source of these data is patent US20260028403A1 (Zymeworks, published 2026).

The target of assay [1] is T1, CD28 on primary human T cells (human, UniProt P10747 19-220). Briefly: cell-based or functional assay.
Assay [2] deals with T1, CD28 on primary human T cells. The assay can be described thus: cell-based or functional assay. This is another data set of the same source.
The target of assay [3] is T2, Recombinant human/cynomolgus/rhesus macaque CD28 mouse IgG2a Fc fusion protein (Acro Biosystems) (human/cynomolgus/rhesus macaque, UniProt P10747 19-152).
T2 construct: bought; also called huCD28
Briefly: SPR Biacore T200, CD28-mIgG2a Fc on CM5. Background: Surface plasmon resonance follows binding to a sensor surface in real time, without labels.

A further assay addresses T3, Human CLDN18.2 (human).
T3 construct: on transfected HEK293-6E cells or native on SNU 601 cells
Briefly: flow cytometry, SNU 601 cells. For orientation: Flow cytometry measures light scatter and fluorescence of single cells or particles in a stream.

For assay [4], the target named is T4, Recombinant human CD3 epsilon/delta heterodimer, his tag protein (Acro Biosystems) (human, UniProt P07766 23-126; P04234 22-105).
T4 construct: bought
The assay can be described thus: SPR Biacore T200, CD3 e/d-his on CM5, construct injected, 1:1 model.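 Note: measured at 25 °C in HEPES-buffered saline with EDTA and Tween 20 at pH 7.4, values are means of three independent runs.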

Assay [5] has as its target T5, Recombinant human/Cynomolgus/Rhesus macaque CD28 Protein, His Tag (Acro Biosystems) (human/cynomolgus/rhesus macaque, UniProt P10747 19-152).
T5 construct: used only for v37634; also called CD28-his tag
Briefly: SPR, v37634 captured on anti-human IgG Fc on CM5, CD28-his tag flowed.

The target of assay [6] is T1, CD28 on primary human T cells. The assay can be described thus: cell-based or functional assay. The source holds these as a separate data set.
Assay [7] shares this target. The assay can be described thus: cell-based or functional assay. The source holds these as a separate data set.
For assay [8] the target is unchanged. The assay can be described thus: cell-based or functional assay. The source holds these as a separate data set.
Assay [9] has as its target T2, Recombinant human/cynomolgus/rhesus …. The assay can be described thus: SPR, in-format anti-CD28 variants, huCD28.
For assay [10] the target is unchanged. The assay can be described thus: SPR Biacore T200, CD28-mIgG2a Fc on CM5, construct injected, 1:1 model.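 Note: fc fusion captured by amine coupling, run at 25 °C in HEPES buffer pH 7.4, association 140-500 s then dissociation 600-1200 s, values averaged over three independent runs.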

Method for Human CLDN18.2: To determine the impact of the trispecific construct format on the construct's ability to binding CLDN18.2, the binding affinity to CLDN18.2 was measured for certain constructs using flow cytometry as described below.
To that end, cells (>80% viability) were resuspended to 1×10⁶ cells/mL in FACS buffer (PBS+2% FBS; Gibco) and seeded in a 96 well v-bottom plate (Sarstedt). Cells were mixed with antibody dilutions and incubated at 4° C. for one hour. Following incubation, cells were washed twice by adding 150 mL FACS buffer and centrifuging for 400×g for 3 minutes. […] Cells were washed twice by adding 150 mL FACS buffer and centrifuging for 400×g for 3 minutes. Cells were resuspended in FACS buffer and acquired on the BD LSRFortessa Cell Analyzer.

B1: v37690 (trispecific antibody, human IgG1, kappa, L234A L235A)
heavy 1: not shown
heavy 2: QVQLVESGGGLVQPGGSLRLSCSVSGIDLSSNPMIWVRQAPGKGLQYIGIIDTDGSTYYADWAKGRFTISKDSTTVYLQINSPRAEDTAVYYCARRLHGSSNGYYDDLWGQGTLVTVSSGGGGSGGGGSGGGGSGGGGSDGQMTQSPSSVSASVGDRVTITCQASQSIYSYLSWYQQKPGQRPKLLIYKASTLASGVPSRFSGSGSGTDFTLTISSVQPEDFATYYCQQGYTVTNVDKNTFGGGTKVEIKAAEPKSSDKTHTCPPCPAPEAAGGPSVFLFPPKPKDTLMISRTPEVTCVVVSVSHEDPEVKFNWYVDGVEVHNAKTKPREEQYNSTYRVVSVLTVLHQDWLNGKEYKCKVSNKALPAPIEKTISKAKGQPREPQVYVLPPSRDELTKNQVSLLCLVKGFYPSDIAVEWESNGQPENNYLTWPPVLDSDGSFFLYSKLTVDKSRWQQGNVFSCSVMHEALHNHYTQKSLSLSPG
light: DIQMTQSPSSLSASVGDRVTITCRASESVEYYVTSLMQWYQQKPGKAPKLLIYAASNVDSGVPSRFSGSGSGTDFTLTISSLQPEDIATYYCQQSRKVPFTFGGGTKVEIKRTVAAPSVFIFPPSDEQLKSGTASVVCLLNNFYPREAKVQWKVDNALQSGNSQESVTEQDSKDSTYSLSSTLTLSKADYEKHKVYACEVTHQGLSSPVTKSFNRGEC
notes: also called v37638 format, CD28 VH Y1112S
For the molecule B1, in [1], the “IC50, T cell-dependent cytotoxicity on SNU 601” value turned out to be 0.00121 nM and the “Maximum Killing (%), SNU 601” value worked out at 92.3%. Moreover, in [2], the “IL-2 maximum cytokine, T cells alone” value turned out to be 243 pg/mL; the “IL-2 maximum cytokine, T cells with SNU 601 cells” value is 2700 pg/mL; the “TNFa maximum cytokine, T cells alone” value is 23 pg/mL; the “TNFa maximum cytokine, T cells with SNU 601 cells” value stood at 518 pg/mL. In addition, the binding result in assay [3] was “no binding”.

B2: v37634 (trispecific antibody, human IgG1, lambda, L234A L235A)
heavy 1: not shown
heavy 2: QVQLVESGGGLVQPGGSLRLSCSVSGIDLSSNPMIWVRQAPGKGLQYIGIIDTDGSTYYADWAKGRFTISKDSTTVYLQINSPRAEDTAVYYCARRLHGSSNGYYDDLWGQGTLVTVSSGGGGSGGGGSGGGGSGGGGSDGQMTQSPSSVSASVGDRVTITCQASQSIYSYLSWYQQKPGQRPKLLIYKASTLASGVPSRFSGSGSGTDFTLTISSVQPEDFATYYCQQGYTVTNVDKNTFGGGTKVEIKAAEPKSSDKTHTCPPCPAPEAAGGPSVFLFPPKPKDTLMISRTPEVTCVVVSVSHEDPEVKFNWYVDGVEVHNAKTKPREEQYNSTYRVVSVLTVLHQDWLNGKEYKCKVSNKALPAPIEKTISKAKGQPREPQVYVLPPSRDELTKNQVSLLCLVKGFYPSDIAVEWESNGQPENNYLTWPPVLDSDGSFFLYSKLTVDKSRWQQGNVFSCSVMHEALHNHYTQKSLSLSPG
light: NFMLTQPHSVSESPGKTVTISCKRNTGNIGSNYVNWYQQHEGSSPTTIIYRNDKRPDGVSDRFSGSIDRSSKSASLTISNLKTEDEADYFCQSYSSGFIFGGGTKLTVLGQPKAAPSVTLFPPSSEELQANKATLVCLISDFYPGAVTVAWKADSSPVKAGVETTTPSKQSNNKYAASSYLSLTPEQWKSHRSYSCQVTHEGSTVEKTVAPTECSGGGGSGDIQMTQSPSSLSASVGDRVTITCRASESVEYYVTSLMQWYQQKPGKAPKLLIYAASNVDSGVPSRFSGSGSGTDFTLTISSLQPEDIATYYCQQSRKVPFTFGGGTKVEIKGGGGSGGGGSGGGGSGGGGSQVQLQESGPGLVKPSETLSLTCAVSGFSLTSYGVHWIRQPPGKGLEWLGVIWPGGGTNFNSALMSRLTISEDTSKNQVSLKLSSVTAADTAVYYCARDRAYGNYLYAMDYWGQGTLVTVSS
notes: CD28 scFv on C-terminus of the CD3 Fab light chain; Het Fc, FcKO; also called CD3xCD28xCldn18.2 trispecific
For orientation: EC50 means the concentration at which the effect is half-maximal. Lower therefore signals higher potency in that assay. What is called Kd is the constant that tells how readily two partners part at equilibrium. As usually defined, the koff is the first-order rate constant of dissociation. What is called kon is a measure of how fast the partners come together. Regarding B2, in the assay with Human CLDN18.2, the Bmax came out at 6840 MFI and the EC50 came to 27.2 nM. In [4], the Kd turned out to be 77.6 nM, the koff stood at 0.0123 s⁻¹ and the kon stood at 163000 M⁻¹ s⁻¹. Moreover, in [5], the Kd was found to be 258 nM, the koff was found to be 0.00187 s⁻¹ and the kon is 7230 M⁻¹ s⁻¹.

B3: v37642 (trispecific antibody, human IgG1, kappa, L234A L235A)
heavy 1: not shown
heavy 2: EVQLVESGGGLVQPGGSLRLSCAASGVTFNYYGMSWIRQAPGKGLEWVASITSSGGRIYYPDSVKGRFTISRENTQKTLYLQMNSLRAEDTAVYYCTLDGRDGWVAYWGQGTLVTVSSGGGGSGGGGSGGGGSGGGGSNFMLTQPHSVSESPGKTVTISCKRNTGNIGSNYVNWYQQHEGSSPTTIIYRNDKRPDGVSDRFSGSIDRSSKSASLTISNLKTEDEADYFCQSYSSGFIFGGGTKLTVLAAEPKSSDKTHTCPPCPAPEAAGGPSVFLFPPKPKDTLMISRTPEVTCVVVSVSHEDPEVKFNWYVDGVEVHNAKTKPREEQYNSTYRVVSVLTVLHQDWLNGKEYKCKVSNKALPAPIEKTISKAKGQPREPQVYVLPPSRDELTKNQVSLLCLVKGFYPSDIAVEWESNGQPENNYLTWPPVLDSDGSFFLYSKLTVDKSRWQQGNVFSCSVMHEALHNHYTQKSLSLSPG
light: DIQMTQSPSSLSASVGDRVTITCRASESVEYYVTSLMQWYQQKPGKAPKLLIYAASNVDSGVPSRFSGSGSGTDFTLTISSLQPEDIATYYCQQSRKVPFTFGGGTKVEIKRTVAAPSVFIFPPSDEQLKSGTASVVCLLNNFYPREAKVQWKVDNALQSGNSQESVTEQDSKDSTYSLSSTLTLSKADYEKHKVYACEVTHQGLSSPVTKSFNRGEC
notes: also called Cldn18.2xCD28xCD3 trispecific
On to B3, for which, in assay [6], the “IFNg mean cytokine, T cells alone, 45 nM construct” value is 857 pg/mL and the “IL-2 mean cytokine, T cells alone, 45 nM construct” value turned out to be 2930 pg/mL. In assay [7], the “IFNg EC50, T cells + SNU 601” value came to 0.00367 nM; the “IFNg maximum cytokine, T cells + SNU 601” value is 3040 pg/mL; the “IL-2 EC50, T cells + SNU 601” value turned out to be 0.00267 nM; the “IL-2 maximum cytokine, T cells + SNU 601” value came out at 5060 pg/mL. In addition, in assay [8], the “IC50, TDCC on SNU 601-RFP, 1:5 E:T” value is 0.0023 nM; the “IC50, TDCC on SNU 601-RFP, 2:1 E:T” value is 0.000166 nM; the “Maximum Mean Cytotoxicity (%), 1:5 E:T” value amounted to 96.9%; the “Maximum Mean Cytotoxicity (%), 2:1 E:T” value was 98.7%. In the assay with Human CLDN18.2, this molecule showed a Bmax of 9310 MFI and a 50% effective concentration (EC50) of 24.1 nM. Also, in assay [9], the “Fold-change from WT” value is 1 fold, the Kd was 42.3 nM, the koff was determined as 0.00286 s⁻¹ and the kon came to 70400 M⁻¹ s⁻¹. Moreover, in assay [4], the dissociation constant (Kd) was determined as 62 nM, the dissociation rate constant (koff) was 0.0117 s⁻¹ and the kon came out at 189000 M⁻¹ s⁻¹. For the same molecule, in [10], the Kd was 20.2 nM, the koff is 0.00198 s⁻¹ and the kon was 98200 M⁻¹ s⁻¹.

B4: v37694 (trispecific antibody, human IgG1, kappa, L234A L235A)
heavy 1: not shown
heavy 2: QVQLVESGGGLVQPGGSLRLSCSVSGIDLSSNPMIWVRQAPGKGLQYIGIIDTDGSTYYADWAKGRFTISKDSTTVYLQINSPRAEDTAVYYCARRLHGSSNGYYDDLWGQGTLVTVSSGGGGSGGGGSGGGGSGGGGSDGQMTQSPSSVSASVGDRVTITCQASQSIYSYLSWYQQKPGQRPKLLIYKASTLASGVPSRFSGSGSGTDFTLTISSVQPEDFATYYCQQGYTVTNVDKNTFGGGTKVEIKAAEPKSSDKTHTCPPCPAPEAAGGPSVFLFPPKPKDTLMISRTPEVTCVVVSVSHEDPEVKFNWYVDGVEVHNAKTKPREEQYNSTYRVVSVLTVLHQDWLNGKEYKCKVSNKALPAPIEKTISKAKGQPREPQVYVLPPSRDELTKNQVSLLCLVKGFYPSDIAVEWESNGQPENNYLTWPPVLDSDGSFFLYSKLTVDKSRWQQGNVFSCSVMHEALHNHYTQKSLSLSPG
light: DIQMTQSPSSLSASVGDRVTITCRASESVEAYVTSLMQWYQQKPGKAPKLLIYAASNVDSGVPSRFSGSGSGTDFTLTISSLQPEDIATYYCQQSRKVPFTFGGGTKVEIKRTVAAPSVFIFPPSDEQLKSGTASVVCLLNNFYPREAKVQWKVDNALQSGNSQESVTEQDSKDSTYSLSSTLTLSKADYEKHKVYACEVTHQGLSSPVTKSFNRGEC
notes: also called v37638 format, CD28 VL Y1031A
Take B4: in assay [1], the “IC50, T cell-dependent cytotoxicity on SNU 601” value is 0.00144 nM and the “Maximum Killing (%), SNU 601” value stood at 93.1%. Moreover, in [2], the “IL-2 maximum cytokine, T cells alone” value worked out at 29.9 pg/mL; the “IL-2 maximum cytokine, T cells with SNU 601 cells” value is 226 pg/mL; the “TNFa maximum cytokine, T cells alone” value came out at 12.9 pg/mL; the “TNFa maximum cytokine, T cells with SNU 601 cells” value stood at 166 pg/mL. The binding result in assay [3] is “no binding”.
